Values quoted from earlier work, collected in paper PMC7249735.

Test system: RGNNV coat protein (RGNNV-CP), MBP fusion (red-spotted grouper nervous necrosis virus (RGNNV))
Settings: PBS (137 mM NaCl, 2.7 mM KCl, 10 mM Na2HPO4, 1.8 mM KH2PO4, pH 7.4); ELASA 30 min at 4 C after 3% BSA block; sandwich capture in PBS, temperature not stated

For “TGTGTGTCTATTGTCTGTGGTTCATGTCAAGCTTATTTTCCACACACGGT [A10]”, the Kd is listed as 4 nM.
